Data published in article PMC9060481 (2022).
Where “and” joins values, the source holds several entries; their conditions need not be identical. Equal values may be shown once.

Columns and labels:
[1] = biological target: T1, calmodulin 2 (CaM2), purified recombinant protein (M. truncatula); experiment: ITC; 5 mM CaCl2
[2] = biological target: T1, calmodulin 2 (CaM2), purified …; experiment: BLI; 20 mM CaCl2
[3] = biological target: T1, calmodulin 2 (CaM2), purified …; experiment: BLI; 20 mM CaCl2; remark: listed apart in the source

Row | Kd [1] | koff [2] | Kd [3] | Binder
1 | 0.644 µM and 0.64 µM | – | – | AACFIQAAWRRHKKRKEA [CNGC15c-IQ peptide]
2 | – | 0.77 s⁻¹ | 526 µM | His6-MBP:CtermCNGC15a (domain or fragment) GNMQTYLQSTTIRLEEWRIRRTDTERWMHHRQLPHYLKENVRRHDQFRWVATRGVDEEAILRDLPVDLRRDIKRHLCLNLVRQVPLFDQMDDRMLDAICERLKPTLCTPGTCIVREGDPVDEMLFIVRGRLDSCTTNGGRTGFFNTCRIGSGDFCGEELLPWALDPRPTAVLPSSTRTVRAITEVEAFALIAEDLKFVAAQFRRLHSKQLRQTFRFYSHQWRTWAACFIQAAWFRYKRMKETNEVKEKENLMMMSNVKYYGNDDSQYFSAPLQVPKGSSYSMYSGKLVGSLRRGRSMRYGSELDMLGTLRKPIEPDFNDDGD
3 | – | 0.077 s⁻¹ | 14.6 µM | His6-MBP:CtermCNGC15c (domain or fragment) LIGNMQTYLQSITVRLEEWRVKRTDTEQWMHHRQLPPELRESIRKYNQYKWVATRGVEEEDLLKGLPLDLRREIKRHLCLELVRGVPLFDQMDERMLDAICERLKPALCTEGTYLVREGDPVNEMLFIIRGHLDSYTTNGGRDGFFNSCRIGPGDFCGEELLTWALDPRPSVILPSSTRTVKAFSEVEAFALIAEDLKFVASQFRRLHSKQLRHKFRFYSHQWRTWAACFIQAAWRRHKKRKEAAELRAKENLVAASEAENEIAKKYGKGFVVYGTRVARSTRKGVNMHSGTNSGVVSSLQKPTEPDFSDE
4 | 1.39 µM | – | – | AACFIQVAWRRTIQEKKG [CNGC15b-IQ peptide]
5 | – | 0.43 s⁻¹ | 59 µM | His6-MBP:CtermCNGC15b (domain or fragment) GNMQTYLQSTTVRLEEWRVKRTDTEQWMHHRQLPQELRQSVRKYDQYKWIATRGVDEESLLRGLPLDLRRDIKRHLCLELVRRVPLFDAMDERMLDAICERLKPALCTENTYLVREGDPVNEMLFIIRGNLDSYTTDGGRTGFFNSCRIGPGDFCGEELLTWALDPRPTMVIPSSTRTVKAISEVEAFALIAEDLKFVASQFRRLHSKQLRNKLRFHSHQWRTWAACFIQVAWRRTIQEKKGSC
